Laboratory results: article PMC4289617 (Journal of medicinal chemistry, 2010)
Like-named read-outs stand apart in the source and are kept apart here. Me3 = trimethyl-lysine, K(Me3)

Assays:
[1] = target: T1, WDR5Δ23 (WD repeat domain 5, residues 24–334) (human, UniProt P61964 24-334); test: fluorescence polarisation
[2] = target: T1, WDR5Δ23 (WD repeat domain 5, residues …); test: fluorescence polarisation; remark: listed apart in the source

| Binder | IC50 [1] [µM] | Ki [1] [µM] | Ki [2] [µM] | IC50 [2] [µM] |
| --- | --- | --- | --- | --- |
| Ac-RAEVHLRKS-NH2 [Ac-9mer (Ac-10mer without Ala1)] | 29 | 6.3 |  |  |
| Ac-ARAEVH-NH2 [Ac-6mer] |  | 0.09 |  |  |
| Ac-ARTKQTARKS-NH2 [Ac-H3-10mer (Ac-ARTKQTARKS-NH2)] |  |  | < 0.001 |  |
| H-ARTK(Me3)QTARKS-NH2 [H3-10mer-K4Me3 (H2N-ARTK(Me3)QTARKS-NH2)] |  |  | 15.6 | 73 |
| Ac-ARAEVHLRKS-NH2 [Ac-10mer (Ac-ARAEVHLRKS-NH2)] |  | 0.003 |  |  |
